Assay results as given in paper PMC4289141 (Journal of the American Chemical Society, 2013).

Molecular target: the molecule itself
Assay: cross-linking

B1: ^A74/C81/C96RIDC1 (natural protein)
chain: not shown
modifications: heme covalently (c-type) linked to the protein backbone; in the tetramer disulfide bonds between monomers
- stoichiometry N: 4
